# Assay results reported in patent US20150299272A1 (UNIVERSITY OF NEWCASTLE UPON TYNE, published 2015).
# B1: Caf1 WT (naturally occurring Caf1 polypeptide monomer from Yersinia pestis; fraction 1 antigen polymer) (other)
# chain: ADLTASTTATATLVEPARITLTYKEGAPITIMDNGNIDTELLVGTLTLGGYKTGTTSTSVNFTDAAGDPMYLTFTSQDGNNHQFTTKVIGKDSRDFDISPKVNGENLVGDDVVLATGSQDFFVRSIGSKGGKLAAGKYTDAVTVTVSNQ
# Biological target: Caf1-FLAG epitope NT (Yersinia pestis, UniProt P26948 1-170)
# Assay: co-expression in E. coli, western blot of partly heat-dissociated polymer
binder,measurement,value
B1,binding result,binds
